Source: the supplement of paper PMC9112550, “Optimization of the antimicrobial peptide Bac7 by deep mutational scanning” (BMC Biology, 2022)

What follows are sequences tested on Escherichia coli TOP10 (assay: shrunken log2 fold change of peptide-encoding DNA abundance (4.5 h post-induction vs induction); higher = less antimicrobial activity (less host growth inhibition)). Conditions: time post-induction: 4.5 h; library: site-saturation at positions 5, 18, 19, 20.
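Note: peptides expressed intracellularly from a pBAD plasmid library in pooled LB shake-flask culture, induced with 0.3% L-arabinose, DNA abundance read by NGS, three biological replicates, DESeq2 with apeglm shrinkage.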

First: RRIRMRPPRLPRPRPRPQMAPRP
Second: RRIRFRPPRLPRPRPRPGPYPRP
The “shrunken log2 fold change” value of the first is higher: 0.349 for the first, -0.0125 for the second.

Compared with RRIRARPPRLPRPRPRPKLGPRP, RRIRVRPPRLPRPRPRPPVSPRP is higher in “shrunken log2 fold change” value: 0.023 for the first, 0.847 for the second.

RRIRPRPPRLPRPRPRPFQTPRP and RRIRRRPPRLPRPRPRPVYVPRP are within 0.2 log units of each other in “shrunken log2 fold change” value: -0.242 for the first, -0.198 for the second.

RRIRARPPRLPRPRPRPTSWPRP and RRIRRRPPRLPRPRPRPTPPPRP are within 0.2 log units of each other in “shrunken log2 fold change” value: 0.756 for the first, 0.845 for the second.

RRIRQRPPRLPRPRPRPYRFPRP and RRIRCRPPRLPRPRPRPEELPRP are within 0.2 log units of each other in “shrunken log2 fold change” value: 0.0797 for the first, 0.249 for the second.

First: RRIRFRPPRLPRPRPRPRHCPRP
Second: RRIRERPPRLPRPRPRPQKLPRP
The “shrunken log2 fold change” value of the first is higher: -0.239 for the first, -0.69 for the second.

Going from RRIRMRPPRLPRPRPRPAVGPRP to RRIRERPPRLPRPRPRPNHIPRP, the “shrunken log2 fold change” value falls from 0.5 to -0.42.

Compared with RRIRWRPPRLPRPRPRPTLTPRP, RRIRVRPPRLPRPRPRPICDPRP is lower in “shrunken log2 fold change” value: 0.697 for the first, -0.0949 for the second.

Compared with RRIRDRPPRLPRPRPRPFAFPRP, RRIRNRPPRLPRPRPRPNLLPRP is lower in “shrunken log2 fold change” value: 0.249 for the first, -0.112 for the second.

Going from RRIRRRPPRLPRPRPRPGSDPRP to RRIRYRPPRLPRPRPRPQNTPRP, the “shrunken log2 fold change” value falls from 0.421 to -1.07.

Going from RRIRQRPPRLPRPRPRPSKAPRP to RRIRLRPPRLPRPRPRPVVYPRP, the “shrunken log2 fold change” value falls from 0.356 to -0.058.

RRIRYRPPRLPRPRPRPLTGPRP and RRIRFRPPRLPRPRPRPMMPPRP are within 0.2 log units of each other in “shrunken log2 fold change” value: -0.023 for the first, -0.0286 for the second.

RRIRNRPPRLPRPRPRPHMTPRP and RRIRSRPPRLPRPRPRPYDNPRP are within 0.2 log units of each other in “shrunken log2 fold change” value: 0.0432 for the first, -0.0962 for the second.

RRIRERPPRLPRPRPRPTLIPRP and RRIRFRPPRLPRPRPRPWQTPRP are within 0.2 log units of each other in “shrunken log2 fold change” value: 0.0112 for the first, -0.0222 for the second.

Going from RRIRPRPPRLPRPRPRPYAKPRP to RRIRCRPPRLPRPRPRPQWYPRP, the “shrunken log2 fold change” value falls from 0.258 to -0.321.

RRIRWRPPRLPRPRPRPTSRPRP and RRIRDRPPRLPRPRPRPASIPRP are within 0.2 log units of each other in “shrunken log2 fold change” value: 0.0324 for the first, 0.0781 for the second.

RRIRCRPPRLPRPRPRPMTQPRP and RRIRARPPRLPRPRPRPPYIPRP are within 0.2 log units of each other in “shrunken log2 fold change” value: -0.188 for the first, -0.38 for the second.

RRIRWRPPRLPRPRPRPPHLPRP and RRIRSRPPRLPRPRPRPIAGPRP are within 0.2 log units of each other in “shrunken log2 fold change” value: 0.0195 for the first, -0.00669 for the second.

First: RRIRMRPPRLPRPRPRPLRYPRP
Second: RRIRIRPPRLPRPRPRPQNCPRP
The “shrunken log2 fold change” value of the first is higher: 0.856 for the first, -0.0145 for the second.

First: RRIRQRPPRLPRPRPRPCRHPRP
Second: RRIRFRPPRLPRPRPRPHFLPRP
The “shrunken log2 fold change” value of the first is higher: -0.000946 for the first, -0.827 for the second.

Going from RRIRDRPPRLPRPRPRPIEVPRP to RRIRSRPPRLPRPRPRPLHWPRP, the “shrunken log2 fold change” value rises from -0.13 to 0.197.

First: RRIRWRPPRLPRPRPRPDLHPRP
Second: RRIRDRPPRLPRPRPRPTDCPRP
The “shrunken log2 fold change” value of the first is higher: 0.243 for the first, 0.00372 for the second.

RRIRCRPPRLPRPRPRPDRWPRP and RRIRVRPPRLPRPRPRPEKWPRP are within 0.2 log units of each other in “shrunken log2 fold change” value: 0.0613 for the first, 0.0257 for the second.

First: RRIRSRPPRLPRPRPRPWNYPRP
Second: RRIRHRPPRLPRPRPRPKMTPRP
The “shrunken log2 fold change” value of the first is higher: 0.0149 for the first, -0.519 for the second.

RRIRHRPPRLPRPRPRPCIWPRP and RRIRSRPPRLPRPRPRPCDIPRP are within 0.2 log units of each other in “shrunken log2 fold change” value: -0.121 for the first, -0.0321 for the second.

RRIRARPPRLPRPRPRPQITPRP and RRIRLRPPRLPRPRPRPESSPRP are within 0.2 log units of each other in “shrunken log2 fold change” value: 0.118 for the first, -0.015 for the second.

Compared with RRIRIRPPRLPRPRPRPSANPRP, RRIRQRPPRLPRPRPRPVWVPRP is higher in “shrunken log2 fold change” value: -0.15 for the first, 0.0799 for the second.

RRIRTRPPRLPRPRPRPQWPPRP and RRIRKRPPRLPRPRPRPLMFPRP are within 0.2 log units of each other in “shrunken log2 fold change” value: 0.0505 for the first, 0.0317 for the second.

Compared with RRIRGRPPRLPRPRPRPKLHPRP, RRIRERPPRLPRPRPRPFFWPRP is lower in “shrunken log2 fold change” value: 0.64 for the first, 0.138 for the second.

RRIRNRPPRLPRPRPRPGLEPRP and RRIRARPPRLPRPRPRPSTHPRP are within 0.2 log units of each other in “shrunken log2 fold change” value: -0.0966 for the first, -0.0532 for the second.
